Laboratory results reported in the supplement of paper PMC10065799, “High-throughput profiling of sequence recognition by tyrosine kinases and SH2 domains using bacterial peptide display” (eLife, 2023).

Columns and labels:
Fyn = Fyn (UniProt P06241); assay: phosphorylation enrichment, bacterial display (enrichment ratio); higher = better substrate or ligand; peptides without Tyr show the background
Jak2 = Jak2 (UniProt O60674); assay: as above
EPHB2 = EPHB2 (UniProt P29323); assay: as above
Fer (mouse) = assay: as above
Fes = Fes (UniProt P07332); assay: as above
Hck = Hck (UniProt P08631); assay: as above
Hck, sequence (P08631 whole entry, looked up): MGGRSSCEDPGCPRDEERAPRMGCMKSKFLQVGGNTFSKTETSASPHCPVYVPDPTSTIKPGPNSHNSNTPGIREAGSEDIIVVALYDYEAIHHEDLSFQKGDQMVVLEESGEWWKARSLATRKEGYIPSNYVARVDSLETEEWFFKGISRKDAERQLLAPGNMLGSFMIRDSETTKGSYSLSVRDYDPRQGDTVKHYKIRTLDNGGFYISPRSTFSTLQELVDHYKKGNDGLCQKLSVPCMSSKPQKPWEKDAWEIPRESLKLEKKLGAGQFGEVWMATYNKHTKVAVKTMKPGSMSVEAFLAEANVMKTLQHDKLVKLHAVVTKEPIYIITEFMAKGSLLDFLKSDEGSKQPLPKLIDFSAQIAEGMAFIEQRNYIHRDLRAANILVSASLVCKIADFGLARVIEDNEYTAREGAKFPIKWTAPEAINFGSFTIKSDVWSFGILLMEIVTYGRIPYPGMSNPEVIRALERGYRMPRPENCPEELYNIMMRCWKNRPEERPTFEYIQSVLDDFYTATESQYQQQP

FGFR1 = FGFR1 (UniProt P11362); assay: as above
c-Abl (mouse) = assay: as above
FGFR3 = FGFR3 (UniProt P22607); assay: as above
EPHB1 = EPHB1 (UniProt P54762); assay: as above
EPHB1, sequence (P54762 whole entry, looked up): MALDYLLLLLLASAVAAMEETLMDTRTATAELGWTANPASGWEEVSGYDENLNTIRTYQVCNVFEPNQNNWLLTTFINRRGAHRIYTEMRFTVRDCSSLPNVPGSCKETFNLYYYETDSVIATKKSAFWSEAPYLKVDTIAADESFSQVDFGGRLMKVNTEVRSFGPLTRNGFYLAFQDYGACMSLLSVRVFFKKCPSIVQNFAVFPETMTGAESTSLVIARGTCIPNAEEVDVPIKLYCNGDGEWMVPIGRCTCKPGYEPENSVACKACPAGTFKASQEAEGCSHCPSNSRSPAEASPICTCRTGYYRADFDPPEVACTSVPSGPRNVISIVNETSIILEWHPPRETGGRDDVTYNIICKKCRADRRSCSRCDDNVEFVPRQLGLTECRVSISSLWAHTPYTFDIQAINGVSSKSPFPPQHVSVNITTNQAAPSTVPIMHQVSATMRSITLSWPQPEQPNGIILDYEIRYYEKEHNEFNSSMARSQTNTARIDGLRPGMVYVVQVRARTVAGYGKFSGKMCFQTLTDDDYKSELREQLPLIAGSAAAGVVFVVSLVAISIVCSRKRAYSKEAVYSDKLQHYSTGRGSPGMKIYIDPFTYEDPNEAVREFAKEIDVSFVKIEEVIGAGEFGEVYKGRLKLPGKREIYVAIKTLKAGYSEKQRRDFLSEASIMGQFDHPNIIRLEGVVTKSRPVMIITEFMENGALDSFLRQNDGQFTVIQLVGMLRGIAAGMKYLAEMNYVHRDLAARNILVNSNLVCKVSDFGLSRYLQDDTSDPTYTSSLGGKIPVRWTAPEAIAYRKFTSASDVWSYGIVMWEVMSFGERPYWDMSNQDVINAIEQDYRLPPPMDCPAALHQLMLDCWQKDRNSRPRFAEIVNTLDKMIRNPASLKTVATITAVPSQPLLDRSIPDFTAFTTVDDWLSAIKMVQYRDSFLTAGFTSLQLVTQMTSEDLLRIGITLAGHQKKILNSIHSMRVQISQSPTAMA

AncSZ = assay: as above
MERTK = MERTK (UniProt Q12866); assay: as above
MERTK, sequence (Q12866 whole entry, looked up): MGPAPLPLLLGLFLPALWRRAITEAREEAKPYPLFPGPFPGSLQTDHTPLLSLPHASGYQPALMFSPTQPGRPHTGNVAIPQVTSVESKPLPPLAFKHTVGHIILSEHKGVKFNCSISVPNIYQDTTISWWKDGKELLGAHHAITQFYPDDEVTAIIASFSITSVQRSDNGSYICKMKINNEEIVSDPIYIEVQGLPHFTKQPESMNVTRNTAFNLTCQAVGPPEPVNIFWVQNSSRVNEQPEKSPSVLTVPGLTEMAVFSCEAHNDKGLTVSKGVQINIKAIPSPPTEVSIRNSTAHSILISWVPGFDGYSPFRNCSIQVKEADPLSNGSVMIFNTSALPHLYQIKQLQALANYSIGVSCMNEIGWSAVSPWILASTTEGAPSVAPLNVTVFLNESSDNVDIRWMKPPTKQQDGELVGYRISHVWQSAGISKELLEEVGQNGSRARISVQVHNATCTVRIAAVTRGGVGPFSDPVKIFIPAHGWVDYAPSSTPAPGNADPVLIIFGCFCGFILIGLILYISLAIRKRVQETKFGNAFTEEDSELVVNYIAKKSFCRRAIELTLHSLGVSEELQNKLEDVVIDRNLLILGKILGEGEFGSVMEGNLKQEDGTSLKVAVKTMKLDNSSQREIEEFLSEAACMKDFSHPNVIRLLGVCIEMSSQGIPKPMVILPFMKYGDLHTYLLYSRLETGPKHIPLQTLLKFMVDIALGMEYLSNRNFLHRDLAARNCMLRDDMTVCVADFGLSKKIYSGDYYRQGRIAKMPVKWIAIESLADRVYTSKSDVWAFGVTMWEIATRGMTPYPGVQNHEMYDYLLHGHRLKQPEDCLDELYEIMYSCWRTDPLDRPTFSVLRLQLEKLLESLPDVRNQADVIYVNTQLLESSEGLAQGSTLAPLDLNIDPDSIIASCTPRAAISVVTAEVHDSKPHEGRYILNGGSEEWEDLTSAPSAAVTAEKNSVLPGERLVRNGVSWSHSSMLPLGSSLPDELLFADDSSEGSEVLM

c-Src = assay: as above
SHP2-C SH2 = assay: SH2 binding enrichment of the phosphorylated peptide, bacterial display (enrichment ratio); higher = better substrate or ligand; peptides without Tyr show the background
Grb2 SH2 = Grb2 SH2 (UniProt P62993); assay: as above
c-Src SH2 = assay: as above
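Wherever SH2 binding enrichment of the phosphorylated peptide, bacterial display is given: peptide library displayed on the E. coli surface as eCPX fusions, selected cells deep-sequenced, score is each peptide's frequency after selection divided by its frequency in the input.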
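Wherever phosphorylation enrichment, bacterial display is given: 11-residue human phosphosite peptides and single-mutation variants displayed on the E. coli surface, counted by deep sequencing, each peptide's frequency after selection divided by its frequency in the unselected input library; frequency after pTyr selection over input frequency; kinase dosed for 20-30% of maximal phosphorylation in three min.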

Jak2, sequence (O60674 whole entry, looked up): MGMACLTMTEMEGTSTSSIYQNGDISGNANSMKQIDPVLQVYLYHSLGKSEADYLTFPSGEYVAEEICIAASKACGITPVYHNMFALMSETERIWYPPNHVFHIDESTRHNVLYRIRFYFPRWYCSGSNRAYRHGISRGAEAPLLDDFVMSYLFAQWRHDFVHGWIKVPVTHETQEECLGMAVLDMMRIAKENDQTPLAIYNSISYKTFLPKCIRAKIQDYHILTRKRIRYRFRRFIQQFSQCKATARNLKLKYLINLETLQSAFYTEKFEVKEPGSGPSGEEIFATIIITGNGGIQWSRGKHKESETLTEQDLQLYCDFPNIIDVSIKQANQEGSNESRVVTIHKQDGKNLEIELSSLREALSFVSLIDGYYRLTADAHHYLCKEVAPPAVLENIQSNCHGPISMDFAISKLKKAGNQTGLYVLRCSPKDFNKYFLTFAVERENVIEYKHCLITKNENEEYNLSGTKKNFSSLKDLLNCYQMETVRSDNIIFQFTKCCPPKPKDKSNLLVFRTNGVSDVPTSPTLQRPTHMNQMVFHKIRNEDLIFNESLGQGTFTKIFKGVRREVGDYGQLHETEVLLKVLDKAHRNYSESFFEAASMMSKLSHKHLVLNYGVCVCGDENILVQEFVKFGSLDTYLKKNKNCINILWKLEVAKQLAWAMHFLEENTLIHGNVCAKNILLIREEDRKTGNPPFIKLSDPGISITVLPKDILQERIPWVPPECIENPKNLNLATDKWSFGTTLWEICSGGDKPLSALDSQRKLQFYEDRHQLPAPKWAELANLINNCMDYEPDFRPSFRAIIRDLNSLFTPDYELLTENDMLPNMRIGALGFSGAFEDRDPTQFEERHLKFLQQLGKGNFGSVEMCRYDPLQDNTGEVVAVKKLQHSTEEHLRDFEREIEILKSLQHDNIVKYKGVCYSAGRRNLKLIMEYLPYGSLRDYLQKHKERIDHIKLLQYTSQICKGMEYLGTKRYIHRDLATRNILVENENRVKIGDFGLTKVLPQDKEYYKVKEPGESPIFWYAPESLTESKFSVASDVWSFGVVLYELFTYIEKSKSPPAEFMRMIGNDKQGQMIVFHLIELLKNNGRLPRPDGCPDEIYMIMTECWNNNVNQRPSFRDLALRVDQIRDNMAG
EPHB2, sequence (P29323 whole entry, looked up): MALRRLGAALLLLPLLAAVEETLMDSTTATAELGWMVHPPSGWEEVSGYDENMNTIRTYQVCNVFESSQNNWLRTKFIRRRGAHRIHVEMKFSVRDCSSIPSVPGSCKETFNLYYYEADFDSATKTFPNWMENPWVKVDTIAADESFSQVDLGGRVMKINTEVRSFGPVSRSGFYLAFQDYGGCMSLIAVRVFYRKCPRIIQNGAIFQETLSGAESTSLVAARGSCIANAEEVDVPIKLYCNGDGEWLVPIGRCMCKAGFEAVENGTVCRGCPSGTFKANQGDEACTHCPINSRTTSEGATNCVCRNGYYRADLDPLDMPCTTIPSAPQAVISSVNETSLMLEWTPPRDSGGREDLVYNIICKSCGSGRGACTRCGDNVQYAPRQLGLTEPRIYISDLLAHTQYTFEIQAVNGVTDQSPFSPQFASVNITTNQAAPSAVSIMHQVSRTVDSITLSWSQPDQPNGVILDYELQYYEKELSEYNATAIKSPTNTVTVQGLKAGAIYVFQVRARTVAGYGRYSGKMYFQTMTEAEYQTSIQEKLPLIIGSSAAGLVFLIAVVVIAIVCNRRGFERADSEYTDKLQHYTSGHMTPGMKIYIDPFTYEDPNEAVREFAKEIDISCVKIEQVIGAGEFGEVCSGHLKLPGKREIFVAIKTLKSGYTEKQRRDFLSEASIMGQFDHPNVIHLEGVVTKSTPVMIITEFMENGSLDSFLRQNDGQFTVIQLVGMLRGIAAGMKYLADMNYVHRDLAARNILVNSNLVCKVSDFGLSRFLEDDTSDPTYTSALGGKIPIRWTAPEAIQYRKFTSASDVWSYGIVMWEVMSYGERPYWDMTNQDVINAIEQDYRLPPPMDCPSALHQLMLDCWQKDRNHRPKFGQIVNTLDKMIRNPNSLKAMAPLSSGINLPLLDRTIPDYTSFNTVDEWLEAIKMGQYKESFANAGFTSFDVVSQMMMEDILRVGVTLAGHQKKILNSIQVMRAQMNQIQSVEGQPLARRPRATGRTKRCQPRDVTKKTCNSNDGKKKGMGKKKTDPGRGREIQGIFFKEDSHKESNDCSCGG

Row | Sequence | SH2 binding enrichment (SHP2-C SH2) | SH2 binding enrichment (Grb2 SH2) | SH2 binding enrichment (c-Src SH2) | phosphorylation enrichment (Fyn) | phosphorylation enrichment (Jak2) | phosphorylation enrichment (EPHB2) | phosphorylation enrichment (Fer (mouse)) | phosphorylation enrichment (Fes) | phosphorylation enrichment (Hck) | phosphorylation enrichment (FGFR1) | phosphorylation enrichment (c-Abl (mouse)) | phosphorylation enrichment (FGFR3) | phosphorylation enrichment (EPHB1) | phosphorylation enrichment (AncSZ) | phosphorylation enrichment (MERTK) | phosphorylation enrichment (c-Src)
1 | RRAKGYPINLF [ITGB2_Y125_D128N_YF] | 0.397 | 0.868 | 0.572 | 0.435 | 0.603 | 0.613 | 0.454 | 0.571 | 0.448 | 0.448 | 0.537 | 0.465 | 0.576 | 0.49 | 0.476 | 0.554
2 | RSRSPYSSRHS [CDK13_Y415] | 0.543 | 0.793 | 0.433 | 0.557 | 0.472 | 0.614 | 0.439 | 0.634 | 0.548 | 0.701 | 0.637 | 0.489 | 0.422 | 0.596 | 0.625 | 0.446
3 | RSSGGYEPRGR [FUS_Y239] | 0.521 | 0.674 | 0.488 | 0.412 | 0.683 | 0.452 | 0.418 | 0.569 | 0.379 | 0.555 | 0.384 | 0.403 | 0.323 | 0.652 | 0.425 | 0.358
4 | RSSNTYTLMDV [ALCAM_Y298_T301M] | 0.7 | 0.78 | 6.21 | 1.55 | 0.309 | 0.868 | 1.42 | 0.793 | 0.676 | 1.26 | 0.614 | 1.17 | 0.633 | 1.01 | 4.15 | 1.58
5 | RTLIRYANLGN [BEST1_Y131] | 1.12 | 3.12 | 0.802 | 0.973 | 0.793 | 0.666 | 0.737 | 1.14 | 0.481 | 0.621 | 1.04 | 0.654 | 0.918 | 1.03 | 0.706 | 0.685
6 | RVEDACILTCN [CCT6A_Y229_Y229C] | 0.738 | 0.85 | 0.657 | 0.551 | 1.18 | 0.688 | 0.571 | 1.12 | 0.751 | 0.708 | 0.86 | 0.968 | 0.622 | 0.994 | 0.683 | 0.727
7 | RVILRYVNPGN [LAMA3_Y791_T796N] | 0.873 | 1.17 | 0.944 | 0.617 | 1.79 | 0.711 | 0.609 | 2.02 | 0.775 | 0.614 | 1.61 | 1.12 | 0.836 | 1.47 | 0.709 | 0.75
8 | RVLKLYGCSPS [ASTL_Y279] | 0.93 | 0.895 | 0.566 | 0.728 | 0.983 | 0.761 | 0.981 | 0.943 | 0.564 | 0.367 | 0.719 | 0.608 | 0.634 | 1.03 | 0.461 | 0.516
9 | SDFFAYSPVQE [H6PD_Y449_R453Q_YF] | 0.639 | 0.704 | 1.83 | 0.489 | 1.36 | 0.686 | 1.13 | 1.32 | 0.647 | 0.577 | 0.922 | 0.807 | 0.783 | 1.44 | 0.645 | 0.611
10 | SDMGQYQCLVF [AXL_Y115_T112M] | 0.916 | 0.726 | 0.437 | 2.35 | 0.933 | 0.991 | 3.38 | 1.22 | 3.14 | 2.05 | 1.57 | 1.89 | 0.923 | 1.3 | 1.84 | 1.97
11 | SDYYAYSPVRE [H6PD_Y449] | 1.48 | 1.06 | 1.13 | 9.64 | 11.2 | 23.7 | 12.9 | 0.832 | 8.79 | 16.3 | 12.9 | 14.8 | 17.5 | 6.22 | 10.7 | 7.18
12 | SGIFQYIIAKF [FOXL2_Y83_YF] | 1.27 | 1.35 | 0.763 | 0.496 | 1.07 | 0.564 | 0.503 | 1.13 | 0.546 | 0.639 | 0.84 | 0.704 | 0.602 | 1.14 | 0.518 | 0.561
13 | SGSIHYSHVPR [GLB1_Y57_R59H] | 1.55 | 0.745 | 0.593 | 0.35 | 0.6 | 0.451 | 0.606 | 0.79 | 0.451 | 0.451 | 0.658 | 0.518 | 0.426 | 0.681 | 0.425 | 0.383
14 | SIKDKHVTALY [KCNH2_Y611_Y611H] | 0.572 | 0.899 | 0.497 | 0.409 | 0.43 | 0.405 | 0.388 | 0.61 | 0.397 | 0.408 | 0.529 | 0.405 | 0.387 | 0.587 | 0.345 | 0.44
15 | SISLKYEGRVF [ABL1_Y167_R166K_YF] | 0.987 | 0.86 | 0.489 | 0.477 | 1.13 | 0.609 | 0.565 | 1.31 | 0.553 | 0.482 | 0.661 | 0.771 | 0.655 | 1.05 | 0.382 | 0.398
16 | SLLVVYPWTQR [HBB_Y36_R31S] | 1.5 | 1.88 | 1.14 | 0.516 | 0.804 | 0.544 | 0.398 | 1.01 | 0.395 | 0.438 | 0.602 | 0.513 | 0.462 | 1.05 | 0.374 | 0.36

Second part, led by results:

Row | SH2 binding enrichment (SHP2-C SH2) | SH2 binding enrichment (Grb2 SH2) | SH2 binding enrichment (c-Src SH2) | Sequence | phosphorylation enrichment (Fyn) | phosphorylation enrichment (Jak2) | phosphorylation enrichment (EPHB2) | phosphorylation enrichment (Fer (mouse)) | phosphorylation enrichment (Fes) | phosphorylation enrichment (Hck) | phosphorylation enrichment (FGFR1) | phosphorylation enrichment (c-Abl (mouse)) | phosphorylation enrichment (FGFR3) | phosphorylation enrichment (EPHB1) | phosphorylation enrichment (AncSZ) | phosphorylation enrichment (MERTK) | phosphorylation enrichment (c-Src)
17 | 0.495 | 1.07 | 0.498 | RRIFSYRGHLW [VHL_Y112_H110Y_YF] | 0.763 | 0.587 | 0.541 | 0.536 | 0.897 | 0.712 | 0.731 | 1.1 | 0.619 | 0.47 | 0.834 | 0.6 | 0.905
18 | 0.691 | 1.34 | 0.893 | RRNVFYFSFLL [PTEN_Y177_Y174N_YF] | 0.984 | 1.69 | 1.03 | 0.852 | 1.62 | 0.923 | 0.743 | 2.83 | 0.709 | 0.998 | 1.81 | 0.937 | 1.29
19 | 0.755 | 0.925 | 0.862 | SARVRYLMAEK [LDHB_Y173_F171V] | 0.43 | 0.39 | 0.521 | 0.439 | 0.756 | 0.423 | 0.482 | 0.472 | 0.532 | 0.46 | 0.579 | 0.417 | 0.38
20 | 0.699 | 0.837 | 0.474 | SDVLSYGVTMW [ZAP70_Y525_W523L] | 0.449 | 1.04 | 0.604 | 0.523 | 1.03 | 0.475 | 0.493 | 0.645 | 0.642 | 0.626 | 0.922 | 0.342 | 0.531
21 | 0.594 | 1.27 | 0.482 | SENPKYPEVGD [TMEM43_Y233] | 0.616 | 0.891 | 0.561 | 0.424 | 1.2 | 0.536 | 0.6 | 0.822 | 0.734 | 0.459 | 1.01 | 0.522 | 0.584
22 | 1.08 | 1.09 | 1.55 | SFLFHYADDSF [RAB3C_Y50_R49H] | 0.476 | 0.958 | 0.549 | 0.465 | 1.12 | 0.399 | 0.438 | 0.718 | 0.671 | 0.498 | 0.905 | 0.412 | 0.466
23 | 1.23 | 1.41 | 1.25 | SFLSFYTSHVQ [NEFL_Y443_P440L_YF] | 0.421 | 1.1 | 0.697 | 0.503 | 1.3 | 0.428 | 0.531 | 0.693 | 0.682 | 0.758 | 1.21 | 0.533 | 0.462
24 | 0.886 | 0.802 | 0.536 | SGAWSYNTSTE [SELE_Y24] | 0.499 | 0.881 | 0.502 | 0.382 | 0.748 | 0.379 | 0.52 | 0.55 | 0.621 | 0.458 | 0.788 | 0.447 | 0.378
25 | 0.51 | 0.56 | 0.318 | SHISGYAALRR [RAPH1_Y1226_T1228A] | 0.494 | 0.561 | 0.476 | 0.432 | 1.04 | 0.431 | 0.361 | 0.726 | 0.554 | 0.328 | 0.836 | 0.446 | 0.44
26 | 0.575 | 0.714 | 0.482 | SHLSSYTTHPQ [NIPBL_Y195_P192L] | 0.451 | 0.663 | 0.393 | 0.392 | 0.726 | 0.44 | 0.435 | 0.534 | 0.591 | 0.389 | 0.569 | 0.399 | 0.419
27 | 0.924 | 0.686 | 0.472 | SHMVNYQPYRK [TEX37_Y25_D24N] | 0.375 | 0.385 | 0.332 | 0.293 | 0.49 | 0.396 | 0.394 | 0.368 | 0.353 | 0.317 | 0.528 | 0.351 | 0.401
28 | 0.614 | 0.763 | 0.544 | SHNELYFEAAE [VANGL1_Y344_E347A_YF] | 0.591 | 0.781 | 0.733 | 0.476 | 1.04 | 0.656 | 1.13 | 0.624 | 1.1 | 0.509 | 1.11 | 0.543 | 0.522
29 | 30 | 1.69 | 2.35 | SHNKYYMLVAH [MFSD8_Y134_R139H] | 0.418 | 1.32 | 0.651 | 1.09 | 0.757 | 0.533 | 6.21 | 0.574 | 4.22 | 1.06 | 0.821 | 3.19 | 0.418
30 | 1.92 | 0.983 | 0.908 | SIYKDYYRYNF [PLA2G2D_Y85] | 4.34 | 8.28 | 5.61 | 1.32 | 0.918 | 3.09 | 13.6 | 5.64 | 11.1 | 5.65 | 1.39 | 5.06 | 4.42
31 | 0.61 | 0.89 | 0.703 | SLHPGYNFRFA [P2RX7_Y291_Y288H_YF] | 0.378 | 0.765 | 0.417 | 0.434 | 0.904 | 0.432 | 0.364 | 0.57 | 0.524 | 0.573 | 0.852 | 0.394 | 0.385
32 | 0.7 | 0.675 | 0.545 | SLIDMYSEVPD [OPA1_Y268_L272P] | 0.595 | 1.24 | 0.679 | 0.422 | 1.03 | 0.594 | 0.892 | 0.619 | 0.895 | 0.48 | 1.27 | 0.604 | 0.747
33 | 0.604 | 0.884 | 0.463 | SLLKDYSPQLQ [OTC_Y345_T343K] | 0.6 | 0.624 | 0.525 | 0.489 | 0.806 | 0.504 | 0.495 | 0.59 | 0.999 | 0.554 | 0.703 | 0.443 | 0.469
